This note sets out measurements from US20080213836.

In data set [1] the target is T1, Boc-Glu(OBzl)-Ala-Arg-MCA.
T1 chain: EAR

In data set [2] the target is T2, Gly-Asp-Asp-Asp-Asp-Lys-β-naphthylamide.
T2 chain: GDDDDK

Data set [3] addresses Human plasma fibronectin, P02751.
Another data set has as its target T3, Pro-Phe-Arg-MCA.
T3 chain: PFR

Another data set addresses T4, Z-Phe-Arg-MCA.
T4 chain: FR

The next data set has as its target T5, human fibrinogen, P02671.
T5 chain 1: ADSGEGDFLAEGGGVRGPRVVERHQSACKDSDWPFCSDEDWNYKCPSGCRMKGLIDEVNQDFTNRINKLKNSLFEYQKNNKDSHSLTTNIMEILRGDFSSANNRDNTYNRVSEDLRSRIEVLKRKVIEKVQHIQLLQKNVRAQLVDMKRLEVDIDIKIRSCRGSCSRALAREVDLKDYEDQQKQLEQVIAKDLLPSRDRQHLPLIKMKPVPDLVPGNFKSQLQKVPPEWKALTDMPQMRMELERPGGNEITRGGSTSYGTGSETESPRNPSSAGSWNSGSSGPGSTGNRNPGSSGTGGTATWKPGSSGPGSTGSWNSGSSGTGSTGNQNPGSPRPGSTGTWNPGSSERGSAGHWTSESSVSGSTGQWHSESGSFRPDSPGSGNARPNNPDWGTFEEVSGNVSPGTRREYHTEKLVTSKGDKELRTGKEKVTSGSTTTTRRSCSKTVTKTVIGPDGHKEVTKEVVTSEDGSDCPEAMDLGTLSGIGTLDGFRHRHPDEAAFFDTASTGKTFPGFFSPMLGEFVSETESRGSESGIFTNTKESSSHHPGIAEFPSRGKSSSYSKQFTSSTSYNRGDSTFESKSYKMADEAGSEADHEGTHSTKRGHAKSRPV
T5 chain 2: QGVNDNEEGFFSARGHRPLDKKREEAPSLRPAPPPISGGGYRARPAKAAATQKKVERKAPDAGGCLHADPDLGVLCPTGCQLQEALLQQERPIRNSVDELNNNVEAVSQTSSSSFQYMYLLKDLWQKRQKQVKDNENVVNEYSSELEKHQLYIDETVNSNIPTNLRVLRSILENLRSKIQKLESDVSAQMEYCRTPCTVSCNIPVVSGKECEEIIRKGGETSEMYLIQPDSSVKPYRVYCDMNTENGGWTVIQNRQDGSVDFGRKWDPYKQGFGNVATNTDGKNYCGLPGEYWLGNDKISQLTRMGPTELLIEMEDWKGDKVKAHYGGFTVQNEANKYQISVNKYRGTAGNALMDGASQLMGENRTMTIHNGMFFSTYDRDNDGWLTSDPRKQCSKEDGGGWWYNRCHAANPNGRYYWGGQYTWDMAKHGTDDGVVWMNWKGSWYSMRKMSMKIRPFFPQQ
T5 chain 3: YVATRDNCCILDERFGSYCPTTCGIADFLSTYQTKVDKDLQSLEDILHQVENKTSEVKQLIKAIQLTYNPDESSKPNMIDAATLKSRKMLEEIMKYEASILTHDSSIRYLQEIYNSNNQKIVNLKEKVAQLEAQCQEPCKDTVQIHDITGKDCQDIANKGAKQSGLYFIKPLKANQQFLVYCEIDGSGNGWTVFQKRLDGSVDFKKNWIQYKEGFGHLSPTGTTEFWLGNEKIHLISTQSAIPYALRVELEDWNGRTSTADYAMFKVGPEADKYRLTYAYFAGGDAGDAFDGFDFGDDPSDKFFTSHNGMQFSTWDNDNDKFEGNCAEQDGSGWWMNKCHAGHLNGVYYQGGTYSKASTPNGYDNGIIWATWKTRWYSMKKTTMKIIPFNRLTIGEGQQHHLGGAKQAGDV

Data set [4] has as its target T6, human high-molecular-weight (HMW) kininogen, P01042.
T6 chain: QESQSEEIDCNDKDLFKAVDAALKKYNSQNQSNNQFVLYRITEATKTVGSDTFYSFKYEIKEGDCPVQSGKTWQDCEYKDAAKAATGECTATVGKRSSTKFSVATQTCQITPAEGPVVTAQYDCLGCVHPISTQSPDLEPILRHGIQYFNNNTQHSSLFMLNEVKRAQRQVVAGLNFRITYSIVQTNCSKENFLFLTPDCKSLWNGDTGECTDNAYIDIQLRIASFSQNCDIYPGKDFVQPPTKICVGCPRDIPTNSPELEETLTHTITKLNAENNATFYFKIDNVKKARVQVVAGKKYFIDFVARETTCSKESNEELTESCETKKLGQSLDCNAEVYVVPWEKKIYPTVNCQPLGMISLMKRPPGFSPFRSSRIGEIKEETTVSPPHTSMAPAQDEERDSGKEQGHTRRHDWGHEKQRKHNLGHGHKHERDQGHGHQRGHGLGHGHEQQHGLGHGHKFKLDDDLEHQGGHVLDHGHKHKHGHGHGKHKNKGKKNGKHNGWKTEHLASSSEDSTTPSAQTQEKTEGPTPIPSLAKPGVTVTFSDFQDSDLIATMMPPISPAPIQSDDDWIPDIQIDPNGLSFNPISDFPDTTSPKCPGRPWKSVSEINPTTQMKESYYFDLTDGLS

Data set [5] concerns the target recombinant fusion protein of Medaka trypsinogen.

Chain of Human plasma fibronectin, P02751 (P02751 other isoform, or with tags, fused parts or gaps): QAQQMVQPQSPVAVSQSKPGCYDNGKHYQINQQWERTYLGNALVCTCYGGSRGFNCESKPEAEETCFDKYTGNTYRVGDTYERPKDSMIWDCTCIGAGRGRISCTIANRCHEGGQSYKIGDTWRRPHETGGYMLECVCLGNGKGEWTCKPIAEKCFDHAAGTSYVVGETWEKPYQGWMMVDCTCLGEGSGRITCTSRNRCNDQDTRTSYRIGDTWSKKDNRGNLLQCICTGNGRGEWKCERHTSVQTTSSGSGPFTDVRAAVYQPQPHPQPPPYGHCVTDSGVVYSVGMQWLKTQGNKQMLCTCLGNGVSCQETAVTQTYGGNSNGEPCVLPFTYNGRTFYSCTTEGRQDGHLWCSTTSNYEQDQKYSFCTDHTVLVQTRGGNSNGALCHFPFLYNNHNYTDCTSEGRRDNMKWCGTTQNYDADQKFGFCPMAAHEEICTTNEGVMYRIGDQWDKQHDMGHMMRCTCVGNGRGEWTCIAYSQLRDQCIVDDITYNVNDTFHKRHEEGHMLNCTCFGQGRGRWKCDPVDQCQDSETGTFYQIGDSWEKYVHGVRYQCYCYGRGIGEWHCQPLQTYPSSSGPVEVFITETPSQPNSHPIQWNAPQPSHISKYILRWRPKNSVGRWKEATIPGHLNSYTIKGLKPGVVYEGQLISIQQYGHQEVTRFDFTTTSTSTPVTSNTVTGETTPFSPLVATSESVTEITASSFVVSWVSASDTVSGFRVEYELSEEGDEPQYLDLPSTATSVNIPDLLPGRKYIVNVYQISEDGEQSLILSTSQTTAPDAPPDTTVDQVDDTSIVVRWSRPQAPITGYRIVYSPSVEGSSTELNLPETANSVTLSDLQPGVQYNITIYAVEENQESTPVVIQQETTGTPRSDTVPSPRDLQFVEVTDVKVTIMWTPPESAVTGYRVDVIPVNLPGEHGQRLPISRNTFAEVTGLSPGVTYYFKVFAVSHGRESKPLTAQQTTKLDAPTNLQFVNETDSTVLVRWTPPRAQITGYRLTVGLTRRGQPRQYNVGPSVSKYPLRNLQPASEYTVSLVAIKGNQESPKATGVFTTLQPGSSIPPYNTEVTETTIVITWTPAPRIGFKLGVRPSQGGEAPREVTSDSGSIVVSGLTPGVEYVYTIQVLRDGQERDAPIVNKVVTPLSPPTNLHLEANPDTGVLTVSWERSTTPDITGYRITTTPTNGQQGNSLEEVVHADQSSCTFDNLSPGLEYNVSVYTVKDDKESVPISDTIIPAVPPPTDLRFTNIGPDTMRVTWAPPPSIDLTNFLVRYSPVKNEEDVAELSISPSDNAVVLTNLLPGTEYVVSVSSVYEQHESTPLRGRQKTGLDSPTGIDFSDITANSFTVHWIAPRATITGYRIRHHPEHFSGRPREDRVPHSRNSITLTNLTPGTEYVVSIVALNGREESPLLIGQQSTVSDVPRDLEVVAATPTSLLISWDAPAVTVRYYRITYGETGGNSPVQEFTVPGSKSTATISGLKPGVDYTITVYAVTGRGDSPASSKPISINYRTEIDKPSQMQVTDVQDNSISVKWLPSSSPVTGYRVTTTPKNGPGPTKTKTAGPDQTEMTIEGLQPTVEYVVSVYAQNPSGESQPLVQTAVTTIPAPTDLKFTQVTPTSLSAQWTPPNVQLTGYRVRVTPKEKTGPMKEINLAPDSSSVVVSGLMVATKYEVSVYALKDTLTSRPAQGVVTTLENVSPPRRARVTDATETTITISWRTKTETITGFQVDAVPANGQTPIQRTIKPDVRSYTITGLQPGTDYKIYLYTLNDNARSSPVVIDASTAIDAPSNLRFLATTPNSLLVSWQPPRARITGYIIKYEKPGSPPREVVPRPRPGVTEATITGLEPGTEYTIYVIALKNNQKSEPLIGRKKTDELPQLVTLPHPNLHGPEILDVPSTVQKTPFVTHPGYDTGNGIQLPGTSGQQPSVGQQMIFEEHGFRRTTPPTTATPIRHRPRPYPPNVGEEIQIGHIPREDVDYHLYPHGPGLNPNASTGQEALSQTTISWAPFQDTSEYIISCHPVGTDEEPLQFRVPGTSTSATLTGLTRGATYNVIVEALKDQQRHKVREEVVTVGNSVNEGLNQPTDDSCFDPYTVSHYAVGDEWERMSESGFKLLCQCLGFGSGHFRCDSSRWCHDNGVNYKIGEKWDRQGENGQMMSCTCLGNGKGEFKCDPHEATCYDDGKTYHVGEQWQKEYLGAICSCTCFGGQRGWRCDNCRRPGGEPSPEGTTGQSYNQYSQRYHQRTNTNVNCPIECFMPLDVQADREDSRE

B1: Medaka EP-1 serine protease domain mutant K63R (protein)
chain: VVGGVNAEKGAWPWMVSLHWRGRHGCGASLIGRDWLLTAAHCVYGRNTHLQYWSAVLGLHAQSSMNSQEVQIRQVDRIIINKNYNRRTKEADIAMMHLQQPVNFTEWVLPVCLASEDQHFPAGRRCFIAGWGRDAEGGSLPDILQEAEVPLVDQDECQRLLPEYTFTSSMLCAGYPEGGVDSCQGDSGGPLMCLEDARWTLIGVTSFGVGCGRPERPGAYARVSAFTSWIAETRRSSFSDLD
Usually Km stands for the concentration of substrate that gives half-maximal velocity. The term kcat denotes the number of substrate molecules converted per active site and unit of time at saturation. For the protein B1, the Michaelis constant (Km) in data set [1] is 1200 µM; in [2], 200 µM; with Pro-Phe-Arg-MCA, 1100 µM; in the data set with Z-Phe-Arg-MCA, 100 µM. Moreover, the “enzyme activity against wild-type” value (in data set [1]; in data set [2]; with Pro-Phe-Arg-MCA; with Z-Phe-Arg-MCA) was “consistently resulted in reduced enzyme activity for synthetic peptide substrates” throughout. In addition, the catalytic constant (kcat) in data set [1] is 0.2 s⁻¹; in [2] it was 3.5 s⁻¹; with Pro-Phe-Arg-MCA, 0.183 s⁻¹; with Z-Phe-Arg-MCA, 0.0233 s⁻¹. Moreover, the kcat/Km (mM^-1 · min^-1) is 10 in [1], 1100 in data set [2], 10 with Pro-Phe-Arg-MCA and 14 with Z-Phe-Arg-MCA. The hydrolysis result (in [3]; with mouse laminin) was “Neither human fibronectin nor laminin was hydrolyzed by the mutants (data not shown)” each time. Also, the “nonspecific proteolytic activity (SDS-PAGE)” value in the data set with human fibrinogen, P02671 is reported as “The mutant proteases had lower nonspecific proteolytic activity for ... human fibrinogen”; in data set [4], “The mutant proteases had lower nonspecific proteolytic activity for human HMW kininogen”. Further, in data set [5], the activation of trypsinogen entry is listed as “K63R converted to trypsin as fast as the wild type enzyme”. Besides, the “conversion of trypsinogen to active enzyme” value (from here on “conversion of trypsinogen”) in data set [5] is “A total of 12 mutants could convert the recombinant Medaka trypsinogen to its active enzyme (data not shown)”.

B2: Medaka EP-1 serine protease domain mutant T105E (protein)
chain: VVGGVNAEKGAWPWMVSLHWRGRHGCGASLIGRDWLLTAAHCVYGKNTHLQYWSAVLGLHAQSSMNSQEVQIRQVDRIIINKNYNRREKEADIAMMHLQQPVNFTEWVLPVCLASEDQHFPAGRRCFIAGWGRDAEGGSLPDILQEAEVPLVDQDECQRLLPEYTFTSSMLCAGYPEGGVDSCQGDSGGPLMCLEDARWTLIGVTSFGVGCGRPERPGAYARVSAFTSWIAETRRSSFSDLD
With B2, the Km in [1] is 1300 µM; in data set [2] it was 400 µM; with Pro-Phe-Arg-MCA, 1300 µM; in the data set with Z-Phe-Arg-MCA it was 100 µM. Moreover, the “enzyme activity against wild-type” value (in data set [1]; in data set [2]; with Pro-Phe-Arg-MCA; with Z-Phe-Arg-MCA) was “consistently resulted in reduced enzyme activity for synthetic peptide substrates” in each case. Further, the kcat in data set [1] was found to be 0.183 s⁻¹; in data set [2] it was 4.33 s⁻¹; with Pro-Phe-Arg-MCA it was 0.267 s⁻¹; with Z-Phe-Arg-MCA it was 0.0333 s⁻¹. In addition, the kcat/Km (mM^-1 · min^-1) is 9 in data set [1], 650 in [2], 12 with Pro-Phe-Arg-MCA and 20 with Z-Phe-Arg-MCA. Also, the hydrolysis entry (in [3]; with mouse laminin) was “Neither human fibronectin nor laminin was hydrolyzed by the mutants (data not shown)” throughout. For the same protein, the “nonspecific proteolytic activity (SDS-PAGE)” value is listed as “The mutant proteases had lower nonspecific proteolytic activity for ... human fibrinogen” in the data set with human fibrinogen, P02671 and “The mutant proteases had lower nonspecific proteolytic activity for human HMW kininogen” in data set [4]. Moreover, in [5], the activation of trypsinogen result was “the other mutants activated trypsinogen at a reduced rate”. The “conversion of trypsinogen” value in data set [5] is recorded as “A total of 12 mutants could convert the recombinant Medaka trypsinogen to its active enzyme (data not shown)”.

B3: Medaka EP-1 serine protease domain mutant P193E (protein)
chain: VVGGVNAEKGAWPWMVSLHWRGRHGCGASLIGRDWLLTAAHCVYGKNTHLQYWSAVLGLHAQSSMNSQEVQIRQVDRIIINKNYNRRTKEADIAMMHLQQPVNFTEWVLPVCLASEDQHFPAGRRCFIAGWGRDAEGGSLPDILQEAEVPLVDQDECQRLLPEYTFTSSMLCAGYEEGGVDSCQGDSGGPLMCLEDARWTLIGVTSFGVGCGRPERPGAYARVSAFTSWIAETRRSSFSDLD
As to B3, the Km was 200 µM in data set [1], 400 µM in [2], 1000 µM with Pro-Phe-Arg-MCA and 200 µM with Z-Phe-Arg-MCA. Moreover, the “enzyme activity against wild-type” value (in data set [1]; in data set [2]; in the data set with Pro-Phe-Arg-MCA; with Z-Phe-Arg-MCA) was “consistently resulted in reduced enzyme activity for synthetic peptide substrates” in each case. In addition, the catalytic constant (kcat) is 0.0383 s⁻¹ in data set [1], 4.83 s⁻¹ in [2], 0.45 s⁻¹ with Pro-Phe-Arg-MCA and 0.0283 s⁻¹ with Z-Phe-Arg-MCA. In addition, the kcat/Km (mM^-1 · min^-1) in [1] is 12; in data set [2] it was 730; with Pro-Phe-Arg-MCA, 27; with Z-Phe-Arg-MCA it was 9. Also, the hydrolysis result (in data set [3]; with mouse laminin) was “Neither human fibronectin nor laminin was hydrolyzed by the mutants (data not shown)” throughout. In addition, the “nonspecific proteolytic activity (SDS-PAGE)” value with human fibrinogen, P02671 is given as “The mutant proteases had lower nonspecific proteolytic activity for ... human fibrinogen”; in data set [4], “The mutant proteases had lower nonspecific proteolytic activity for human HMW kininogen”. In addition, the activation of trypsinogen result in data set [5] is listed as “the other mutants activated trypsinogen at a reduced rate”. Also, the “conversion of trypsinogen” value in data set [5] is recorded as “A total of 12 mutants could convert the recombinant Medaka trypsinogen to its active enzyme (data not shown)”.
